Experimental findings from US20060029667A1 (RUTGERS THE STATE UNIVERSITY OF NEW JERSEY, published 2006) are described below.

Assay [1] concerns the target high affinity formyl methionine receptor (fMLF receptor) on differentiated HL-60 cells (human) (UniProt P21462). As to the kind of experiment: cell-based or functional assay.
The target is the same in assay [2]. As to the kind of experiment: radioligand binding to DMSO-differentiated HL-60 cells.
Assay [3] concerns the target T1, human sodium dependent multivitamin transporter, hSMVT (human, UniProt Q9Y289 1-635).
T1 sequence (looked up): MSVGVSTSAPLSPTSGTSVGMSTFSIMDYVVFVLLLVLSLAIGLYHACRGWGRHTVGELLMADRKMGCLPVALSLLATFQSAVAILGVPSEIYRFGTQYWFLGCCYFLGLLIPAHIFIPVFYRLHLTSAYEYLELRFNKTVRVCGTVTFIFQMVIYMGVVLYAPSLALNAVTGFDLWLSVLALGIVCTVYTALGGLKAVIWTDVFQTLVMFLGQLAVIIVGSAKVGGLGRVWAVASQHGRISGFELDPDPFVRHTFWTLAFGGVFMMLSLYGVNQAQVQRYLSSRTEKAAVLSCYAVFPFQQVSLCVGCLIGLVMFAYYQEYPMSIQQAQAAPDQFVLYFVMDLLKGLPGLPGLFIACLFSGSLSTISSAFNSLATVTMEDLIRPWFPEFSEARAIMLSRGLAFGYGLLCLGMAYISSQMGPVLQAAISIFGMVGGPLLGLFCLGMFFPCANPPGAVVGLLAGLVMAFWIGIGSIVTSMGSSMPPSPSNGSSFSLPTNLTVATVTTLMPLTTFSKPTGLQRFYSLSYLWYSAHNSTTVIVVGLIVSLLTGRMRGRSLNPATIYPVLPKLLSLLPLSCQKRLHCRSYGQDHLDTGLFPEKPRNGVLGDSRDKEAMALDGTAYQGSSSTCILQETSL
As to the kind of experiment: cell-based or functional assay.

Non-standard residues stand in square brackets, D forms with d. No end group written: not given here. *: point of attachment. Biotin = O=C1N[C@H]2[C@H](CS[C@H]2CCCCC(=O)*)N1

Sequence of high affinity formyl methionine receptor (fMLF receptor) on differentiated HL-60 cells (human) (P21462 whole entry): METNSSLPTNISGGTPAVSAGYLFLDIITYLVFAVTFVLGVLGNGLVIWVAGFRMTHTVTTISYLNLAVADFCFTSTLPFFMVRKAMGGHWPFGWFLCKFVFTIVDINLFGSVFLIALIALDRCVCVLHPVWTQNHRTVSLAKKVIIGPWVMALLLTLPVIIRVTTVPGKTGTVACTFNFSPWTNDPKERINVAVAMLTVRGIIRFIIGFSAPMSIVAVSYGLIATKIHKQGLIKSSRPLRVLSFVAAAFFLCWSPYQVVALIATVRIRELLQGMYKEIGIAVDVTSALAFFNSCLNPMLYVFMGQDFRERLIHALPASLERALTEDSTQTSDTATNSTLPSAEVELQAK

Turning to “N-formyl-methionine-leucine-phenylalanine (fMLF) peptide”, the Cell Activation EC50 (calcium release from intracellular stores, differentiated HL-60 cells) in assay [1] came out at 4.7 nM.

Regarding fML[3H]F (peptide), the specific binding as percent of total binding in assay [2] came to 75%.

B1: RI-K(biotin)-Tat9 (peptide)
peptide: [dK](Biotin)[dR][dR][dR][dQ][dR][dR][dK][dK][dR]-NH2
modifications: not fully specified (N-terminus)
Consider B1, for which the “uptake in CHO/hSMVT cells relative to RI-K-Tat9 (at 10 µM)” value in assay [3] is about 500 fold.
